For data set [1], the target named is Candida albicans γ-tubulin small complex (Caγ-TuSC) (C. albicans) (UniProt Q59PZ2). The data set can be described thus: SEC. A general note: SEC sorts molecules by how far they enter the pores of the column.
The target is the same in data set [2]. The data set can be described thus: SEC. The source holds these as a separate data set.
Data set [3] deals with Saccharomyces cerevisiae γ-tubulin small complex (Scγ-TuSC) (S. cerevisiae) (UniProt P38863). In words: SEC.
For data set [4], the target named is MOZART1-EGFP (purified) (human) (UniProt Q08AG7). In words: MST.
Sequence of MOZART1-EGFP (purified) (human) (Q08AG7 whole entry): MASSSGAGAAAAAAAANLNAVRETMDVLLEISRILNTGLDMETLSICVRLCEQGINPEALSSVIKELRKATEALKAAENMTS
The target of data set [5] is EGFP-CaMzt1 (C. albicans). In words: MST.
The target in data set [6] is CaMzt1-EGFP (C. albicans). The data set can be described thus: MST.
Data set [7] has as its target EGFP-CaMzt1^D22A (C. albicans). In words: MST.
Data set [8] concerns the target Caγ-TuSC–CaMzt1 complex (preassembled, co-expressed) (C. albicans) (UniProt Q59PZ2). The data set can be described thus: MST.
The data set “SEC” deals with the molecule itself. The data set can be described thus: SEC.
The next data set has as its target T1, GST–CaSpc72-N (1–420) (C. albicans, UniProt Q5AGV5 1-420).
T1 sequence (looked up): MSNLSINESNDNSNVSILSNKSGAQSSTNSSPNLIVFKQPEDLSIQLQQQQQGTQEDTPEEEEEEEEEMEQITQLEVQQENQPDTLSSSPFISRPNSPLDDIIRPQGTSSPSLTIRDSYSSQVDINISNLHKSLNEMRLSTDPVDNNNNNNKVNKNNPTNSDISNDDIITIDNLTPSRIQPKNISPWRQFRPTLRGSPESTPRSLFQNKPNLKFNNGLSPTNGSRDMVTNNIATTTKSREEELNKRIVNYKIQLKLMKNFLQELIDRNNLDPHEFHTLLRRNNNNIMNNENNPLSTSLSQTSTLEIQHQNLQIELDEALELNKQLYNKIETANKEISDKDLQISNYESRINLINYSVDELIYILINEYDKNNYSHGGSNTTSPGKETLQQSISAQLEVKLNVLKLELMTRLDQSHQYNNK
In words: SEC.

The target of data set [9] is Candida albicans γ-tubulin small complex (Caγ-TuSC) (C. albicans, UniProt Q59PZ2 1-871; A0A1D8PS42 1-785; O93807 1-502). In words: co-purification after co-expression.

From PMC5166503 (The Journal of Cell Biology, 2016) come the findings set out here.

Read-outs that look alike come from different tables or passages of the source.

The term Kd denotes a measure of binding affinity in units of concentration. Higher therefore signals lower affinity. In general, stoichiometry N refers to a count of units in the complex or per binding partner.

As to “Candida albicans γ-tubulin small complex (Caγ-TuSC), Q59PZ2 1-871; A0A1D8PS42 1-785; O93807 1-502”, the percent oligomeric in [1] is 30%; in data set [2] it was 5%.
Turning to “Saccharomyces cerevisiae γ-tubulin small complex (Scγ-TuSC), P38863 1-823; P53540 1-846; P53378 1-473”, the percent oligomeric in data set [3] was > 90%.
For “GST–CaSpc110-N (1–222) (domain or fragment)”, the dissociation constant (Kd) in data set [4] came out at 489 nM; in data set [5] it was 187 nM. For the same molecule, the fold lower affinity than with EGFP-CaMzt1 in data set [6] came to 3 fold. In data set [7], this molecule displayed a fold reduction of affinity against EGFP-CaMzt1 of 6 fold. The molecule also showed a fold higher affinity than to Caγ-TuSC in data set [8] of 3 fold.
Take “CaSpc110^CM1 fragment (117–176 aa) (domain or fragment)”: the dissociation constant Kd in data set [5] was 1420 nM.

B1: EGFP-CaMzt1 (natural protein, C. albicans, UniProt A0A1D8PMH7 1-58, looked up)
chain: MPPDPNSMIVELARLMNCVQLDETVLQLCIKLLDEGANPQQLAKHILAIKKETNSILT
Consider B1, for which the “stoichiometry N” value in “SEC” was 3 to 4. The binding result in the data set with GST–CaSpc72-N (1–420) is listed as “binds”.

B2: CaMzt1-3Flag (natural protein, C. albicans, UniProt A0A1D8PMH7 1-58, looked up)
chain: B1 chain
On to B2, for which, in data set [9], the “stoichiometry N” value stood at 1.

B3: GST-CaMzt1 (natural protein, C. albicans, UniProt A0A1D8PMH7 1-58, looked up)
chain: B1 chain
Regarding B3, the “stoichiometry N” value in “SEC” fell in the range of 3 to 4.
